Measurements from US20160137696A1 (Bristol-Myers Squibb, published 2016).
Starred links: 1 amine or outer side, 2 acyl side, 3 side chain; linkers in the order of their positions; H or OH if unused. Positions of bridges follow the written chain, without caps; N, C: chain ends. Non-standard residues stand in square brackets, D forms with d. Groups on a side chain read outwards from the residue. Primed or numbered codes have the meaning given here. No end group written: not given here. *: point of attachment. PEG8′ = PEG8 unit (23-azido-3,6,9,12,15,18,21-heptaoxatricosyl, i.e. an eight-unit PEG spacer) linking the triazole to vitamin E succinate; Pra′ = propargylglycine (built in as LPH), clicked to a 1-substituted triazol-4-yl-alanine, O=C([C@H](Cc1cn([*:3])nn1)N[*:1])[*:2]; X1 = (S)‑3‑carboxy‑3‑(15-carboxypentadecanoylamino)propyl, O=C(O)CCCCCCCCCCCCCCC(=O)N[C@@H](CC*)C(=O)O; Pra″ = its azide, alkyne or alkene has reacted where a group follows in round brackets; X2 = (S)‑3‑carboxy‑3‑palmitamidopropyl, CCCCCCCCCCCCCCCC(=O)N[C@@H](CC*)C(=O)O; Pra(3) = propargylglycine, clicked to an azide to give a triazolyl-alanine; triazole = 1,2,3-triazole formed by click of the Pra alkyne with the azide; Trp(1-CH2CO) = O=C([C@H](Cc1cn(CC(=O)[*:3])c2ccccc12)N[*:1])[*:2]; Phe(3,4,5-F3) = N[C@@H](Cc1cc(F)c(F)c(F)c1)C(=O)O; Biotin = O=C1N[C@H]2[C@H](CS[C@H]2CCCCC(=O)*)N1; C18 diacid = O=C(O)CCCCCCCCCCCCCCCCC(=O)*; Phe(4-F) = N[C@@H](Cc1ccc(F)cc1)C(=O)O; γGlu = O=C(O)[C@H](CCC(=O)[*:2])N[*:1]; Palmitoyl = CCCCCCCCCCCCCCCC(=O)*; Hyp = O=C(O)[C@@H]1C[C@@H](O)CN1; NMeF = CN[C@@H](Cc1ccccc1)C(=O)O; NMeE = CN[C@@H](CCC(=O)O)C(=O)O; dHyp = O=C(O)[C@H]1C[C@H](O)CN1; NMeNle = CCCC[C@H](NC)C(=O)O; Suc = O=C(CCC(=O)[*:2])[*:1]; triazole″ = not defined here; Pip = O=C(O)[C@@H]1CCCCN1; NMeA = CN[C@@H](C)C(=O)O; Orn = NCCC[C@H](N)C(=O)O; PEG7′ = not defined here; Pra = C#CC[C@H](N)C(=O)O; Dab = NCC[C@H](N)C(=O)O; Dap = NC[C@H](N)C(=O)O; Sar = CNCC(=O)O

B1: Example 13122 (peptide)
peptide: {CH2CO}-Y[NMeA]NP[Dap]L[Hyp]W[Dab][Trp(1-CH2CO)][NMeNle][NMeNle]LCGG[Pra″]([triazole-(S)‑4‑azido‑2‑palmitamidobutanoic acid])
modifications: thioether N-14 (inferred)
B2: Example 14078 (peptide)
peptide: {CH2CO}-Y[NMeA]DPHK[Hyp]WK[Trp(1-CH2CO)][NMeNle][NMeNle]ECG[Pra′]([triazole-X1])
modifications: thioether N-14
B3: Example 14088 (peptide)
peptide: FFXPDVFDPWYLCGX
modifications: as m17 (INT 1400L); Pra triazole-linked to vitamin E succinate 5-azidopentylamide
B4: Example 14072 (peptide)
peptide: {CH2CO}-Y[NMeA]DPHK[Hyp]WK[Trp(1-CH2CO)][NMeNle][NMeNle]ECG[Pra′]([triazole-X2])
modifications: thioether N-14
B5: INT-1400J (peptide)
peptide: {CH2CO}-Y[NMeA]DPHK[Hyp]WK[Trp(1-CH2CO)][NMeNle][NMeNle]ECG[Pra]
modifications: thioether N-14; not fully specified (C-terminus); printed as ClAc-Tyr-mAla-Asp-Pro-His-Lys-Hyp-Trp-Lys-Trp(1-carboxymethyl)-mNle-mNle-Glu-Cys-Gly-[(S)-propargylglycine], cyclised ClAc-Cys
notes: also called Intermediate 1400J
B6: Example 14055 (peptide)
peptide: {CH2CO}-Y[NMeA]DPHQ[Hyp]WSW[NMeNle][NMeNle]ECG[Pra(3)]([triazole″-PEG8′-Suc-vitamin E])G
modifications: thioether N-14; reading uncertain
B7: Example 13123 (peptide)
peptide: {CH2CO}-Y[NMeA]NP[Dap]L[Hyp]W[Dab][Trp(1-CH2CO)][NMeNle][NMeNle]LCGG[Pra″]([triazole-PEG7′-γGlu-C18 diacid])
modifications: thioether N-14 (inferred)
B8: Example 14081 (peptide)
peptide: {CH2CO}-[Phe(3,4,5-F3)][NMeF][NMeNle][dP]DV[NMeF][Orn][dP]WYLCG[Pra′]([triazole-X2])
modifications: thioether N-13
B9: Example 3620 (peptide)
peptide: {CH2CO}-F[NMeF][NMeNle][Sar]DV[NMeF]Y[NMeE]WYLCGGGK([PEG4‑propionyl-Biotin])-NH2
modifications: thioether N-13
B10: Example 14084 (peptide)
peptide: {CH2CO}-[Phe(3,4,5-F3)][NMeF][NMeNle][dHyp]DV[NMeF]D[dP]WYLCG[Pra″]([triazole-(S)‑3‑carboxy‑3‑aminopropyl-Palmitoyl])
modifications: thioether N-13; not fully specified; printed as ClAc-F3Phe-mPhe-mNle-dHyp-Asp-Val-mPhe-Asp-dPro-Trp-Tyr-Leu-Cys-Gly-[(S)-propargylglycine]
B11: Example 14067 (peptide)
peptide: {CH2CO}-Y[NMeA]DPHK[Hyp]WKW[NMeNle][NMeNle]ECG[Pra′]([triazole-X1])
modifications: thioether N-14
B12: Example 13150 (peptide)
peptide: {CH2CO}-[Phe(4-F)][Pip]DP[Dap]L[Hyp]W[Dab][Trp(1-CH2CO)][NMeNle][NMeNle]LCG[Dab]([γGlu-C18 diacid])
modifications: thioether N-14 (inferred)

Columns and labels:
[1] = target: T1, Recombinant Human PD-L1-TVMV-His (human, UniProt Q9NZQ7 19-239); assay: HTRF vs PD-1-Ig; A = IC50 0.10-1.6 µM
T1 construct: expressed in HEK293T cells; also called PD-L1-His; hPD-L1(19-239)-TVMV-His
T1 sequence (Q9NZQ7 other isoform, or with tags, fused parts or gaps limits assumed): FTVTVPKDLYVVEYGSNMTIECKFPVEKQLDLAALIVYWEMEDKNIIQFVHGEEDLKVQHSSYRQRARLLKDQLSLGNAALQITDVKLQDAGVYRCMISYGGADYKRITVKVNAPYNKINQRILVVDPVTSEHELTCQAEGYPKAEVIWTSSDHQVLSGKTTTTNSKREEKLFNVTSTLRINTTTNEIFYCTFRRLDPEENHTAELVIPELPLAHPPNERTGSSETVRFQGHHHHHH
Protocol: (§1) Homogenous Time-Resolved Fluorescence (HTRF) Assays of Binding of Soluble PD-1 to Soluble PD-L1. Soluble PD-1 and soluble PD-L1 refers to proteins with carboxyl-end truncations that remove the transmembrane-spanning regions and are fused to heterologous sequences, specifically the Fc portion of the human immunoglobuling G sequence (Ig) or the hexahistidine epitope tag (His). All binding studies were performed in an HTRF assay buffer consisting of dPBS supplemented with 0.1% (w/v) bovine serum albumin and 0.05% (v/v) Tween-20. For the PD-1-Ig/PD-L1-His binding assay, inhibitors were pre-incubated with PD-L1-His (10 nM final) for 15 m in 4 μl of assay buffer, followed by addition of PD-1-Ig (20 nM final) in 1 μl of assay buffer and further incubation for 15 m. PD-L1 fusion proteins from either human, cynomologous macaques, mouse, or other species were used. HTRF detection was achieved using europium crypate-labeled anti-Ig monoclonal antibody (1 nM final) and allophycocyanin (APC) labeled anti-His monoclonal antibody (20 nM final). Antibodies were diluted in HTRF detection buffer and 5 μl was dispensed on top of binding reaction. The reaction was allowed to equilibrate for 30 minutes and signal (665 nm/620 nm ratio) was obtained using an EnVision fluorometer. Additional binding assays were established between PD-I-Ig/PD-L2-His (20 and 5 nM, respectively), CD80-His/PD-L1-Ig (100 and 10 nM, respectively) and CD80-His/CTLA4-Ig (10 and 5 nM, respectively). Binding/competition studies between biotinylated Compound No. 71 and human PD-L1-His were performed as follows. Macrocyclic peptide inhibitors were pre-incubated with PD-L1-His (10 nM final) for 60 minutes in 4 μl of assay buffer followed by addition of biotinylated Compound No. 71 (0.5 nM final) in 1 μl of assay buffer. Binding was allowed to equilibrate for 30 minutes followed by addition of europium crypated labeled Streptavidin (2.5 pM final) and APC-labeled anti-His (20 nM final) in 5 μl of HTRF buffer. The reaction was allowed to equilibrate for 30 m and signal (665 nm/620 nm ratio) was obtained using an EnVision fluorometer.

[2] = target: T1, Recombinant Human PD-L1-TVMV-His; assay: HTRF vs PD-1-Ig; B = IC50 0.01-0.099 µM
Protocol: as §1

[3] = target: T1, Recombinant Human PD-L1-TVMV-His; assay: HTRF vs PD-1-Ig
Protocol: as §1

Row | Binder | IC50 [1] | IC50 [2] | IC50 [3]
1 | B1 | 100 to 1600 nM |  | 
2 | B2 |  | 10 to 99 nM | 10.8 nM
3 | B3 |  |  | 799 nM
4 | B4 |  |  | 8.5 nM
5 | B5 |  |  | 8.8 nM
6 | B6 |  |  | 388 nM
7 | B7 |  |  | 150 nM
8 | B8 | 100 to 1600 nM |  | 
9 | B9 |  |  | 9 nM
10 | B10 |  |  | 627 nM
11 | B11 |  |  | 10.4 nM
12 | B12 |  |  | 20.9 nM
